Source: IntAct's records for PubMed 18612383

B1: Cellular tumor antigen p53 (Mus musculus), P02340 (parent)
chain: MTAMEESQSDISLELPLSQETFSGLWKLLPPEDILPSPHCMDDLLLPQDVEEFFEGPSEALRVSGAPAAQDPVTETPGPVAPAPATPWPLSSFVPSQKTYQGNYGFHLGFLQSGTAKSVMCTYSPPLNKLFCQLAKTCPVQLWVSATPPAGSRVRAMAIYKKSQHMTEVVRRCPHHERCSDGDGLAPPQHLIRVEGNLYPEYLEDRQTFRHSVVVPYEPPEAGSEYTTIHYKYMCNSSCMGGMNRRPILTIITLEDSSGNLLGRDSFEVRVCACPGRDRRTEEENFRKKEVLCPELPPGSAKRALPTCTSASPPQKKKPLDGEYFTLKIRGRKRFEMFRELNEALELKDAHATEESGDSRAHSSYLKTKKGQSTSRHKKTMVKKVGPDSD

Variants of: B1
Settings: with ep300_human EP300, Q09472
Sequence of ep300_human EP300, Q09472 (Q09472 whole entry): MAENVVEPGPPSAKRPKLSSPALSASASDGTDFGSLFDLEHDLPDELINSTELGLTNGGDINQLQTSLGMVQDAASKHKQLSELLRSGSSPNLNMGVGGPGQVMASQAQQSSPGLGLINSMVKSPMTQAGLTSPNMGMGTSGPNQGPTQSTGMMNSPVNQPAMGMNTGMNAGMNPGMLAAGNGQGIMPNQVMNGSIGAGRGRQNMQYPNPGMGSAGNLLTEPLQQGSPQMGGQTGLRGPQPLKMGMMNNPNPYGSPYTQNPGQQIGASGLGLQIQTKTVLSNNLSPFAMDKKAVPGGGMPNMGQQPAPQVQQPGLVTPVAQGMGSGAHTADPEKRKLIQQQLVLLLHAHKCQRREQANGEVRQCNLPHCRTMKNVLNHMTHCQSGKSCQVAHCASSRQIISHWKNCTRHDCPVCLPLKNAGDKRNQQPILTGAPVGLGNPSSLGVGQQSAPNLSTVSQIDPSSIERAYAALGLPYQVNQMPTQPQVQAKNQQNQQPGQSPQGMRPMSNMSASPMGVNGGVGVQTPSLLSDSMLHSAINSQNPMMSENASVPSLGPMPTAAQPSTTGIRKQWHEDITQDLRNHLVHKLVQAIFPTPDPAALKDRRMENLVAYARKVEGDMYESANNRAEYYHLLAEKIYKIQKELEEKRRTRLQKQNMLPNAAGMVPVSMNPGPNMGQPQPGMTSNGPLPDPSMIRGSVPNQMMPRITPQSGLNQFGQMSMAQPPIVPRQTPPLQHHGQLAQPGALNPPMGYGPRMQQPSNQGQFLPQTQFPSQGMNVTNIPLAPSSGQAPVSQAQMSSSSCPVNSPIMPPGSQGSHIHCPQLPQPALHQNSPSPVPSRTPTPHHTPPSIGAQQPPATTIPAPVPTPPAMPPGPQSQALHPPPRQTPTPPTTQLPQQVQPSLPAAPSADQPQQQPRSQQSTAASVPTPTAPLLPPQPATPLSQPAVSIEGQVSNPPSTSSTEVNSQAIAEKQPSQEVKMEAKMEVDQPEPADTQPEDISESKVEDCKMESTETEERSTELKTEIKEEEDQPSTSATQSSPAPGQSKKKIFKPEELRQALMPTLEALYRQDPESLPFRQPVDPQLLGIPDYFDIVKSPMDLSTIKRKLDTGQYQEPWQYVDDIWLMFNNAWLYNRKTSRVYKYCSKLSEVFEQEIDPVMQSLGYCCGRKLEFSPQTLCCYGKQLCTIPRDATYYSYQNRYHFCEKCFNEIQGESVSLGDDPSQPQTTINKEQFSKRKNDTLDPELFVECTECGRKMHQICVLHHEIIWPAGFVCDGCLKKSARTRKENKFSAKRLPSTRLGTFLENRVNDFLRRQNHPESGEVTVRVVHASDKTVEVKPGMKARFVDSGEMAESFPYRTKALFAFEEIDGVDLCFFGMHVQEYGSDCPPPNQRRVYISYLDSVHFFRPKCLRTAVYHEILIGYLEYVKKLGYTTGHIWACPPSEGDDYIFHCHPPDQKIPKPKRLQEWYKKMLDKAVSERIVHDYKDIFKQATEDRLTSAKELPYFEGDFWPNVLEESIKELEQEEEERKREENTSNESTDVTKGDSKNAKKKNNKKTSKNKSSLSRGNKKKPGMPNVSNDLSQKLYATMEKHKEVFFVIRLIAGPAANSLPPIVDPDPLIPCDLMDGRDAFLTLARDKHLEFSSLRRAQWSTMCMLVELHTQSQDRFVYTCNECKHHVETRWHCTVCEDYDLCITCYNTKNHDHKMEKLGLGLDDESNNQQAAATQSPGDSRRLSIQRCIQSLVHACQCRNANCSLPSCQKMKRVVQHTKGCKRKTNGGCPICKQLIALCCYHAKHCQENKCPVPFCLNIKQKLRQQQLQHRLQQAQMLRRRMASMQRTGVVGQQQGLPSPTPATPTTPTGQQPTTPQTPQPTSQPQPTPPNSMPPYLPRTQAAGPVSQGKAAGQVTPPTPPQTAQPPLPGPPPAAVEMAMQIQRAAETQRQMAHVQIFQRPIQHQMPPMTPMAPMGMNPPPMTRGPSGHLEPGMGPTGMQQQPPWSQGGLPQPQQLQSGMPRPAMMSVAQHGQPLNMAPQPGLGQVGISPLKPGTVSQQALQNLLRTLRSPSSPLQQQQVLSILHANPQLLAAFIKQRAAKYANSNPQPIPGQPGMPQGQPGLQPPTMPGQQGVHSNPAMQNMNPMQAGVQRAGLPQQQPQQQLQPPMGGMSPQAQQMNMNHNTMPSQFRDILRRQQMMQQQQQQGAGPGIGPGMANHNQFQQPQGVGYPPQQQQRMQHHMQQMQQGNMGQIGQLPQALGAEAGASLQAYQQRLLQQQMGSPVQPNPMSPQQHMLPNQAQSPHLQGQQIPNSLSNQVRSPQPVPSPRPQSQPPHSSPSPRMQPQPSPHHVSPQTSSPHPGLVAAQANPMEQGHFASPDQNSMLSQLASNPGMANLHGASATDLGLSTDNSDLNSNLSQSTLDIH

| effect of a mutation on the interaction | Variant |
| --- | --- |
| decreasing interaction | MTAMEESQSDISLELPLSQETFSGQSKLLPPEDILPSPHCMDDLLLPQDVEEFFEGPSEALRVSGAPAAQDPVTETPGPVAPAPATPWPLSSFVPSQKTYQGNYGFHLGFLQSGTAKSVMCTYSPPLNKLFCQLAKTCPVQLWVSATPPAGSRVRAMAIYKKSQHMTEVVRRCPHHERCSDGDGLAPPQHLIRVEGNLYPEYLEDRQTFRHSVVVPYEPPEAGSEYTTIHYKYMCNSSCMGGMNRRPILTIITLEDSSGNLLGRDSFEVRVCACPGRDRRTEEENFRKKEVLCPELPPGSAKRALPTCTSASPPQKKKPLDGEYFTLKIRGRKRFEMFRELNEALELKDAHATEESGDSRAHSSYLKTKKGQSTSRHKKTMVKKVGPDSD [L25Q;W26S] |
